Results taken from patent publication US6319685A (Unigene Laboratories, Inc., priority 1987, dated 2001).
Read-outs that look alike come from different tables or passages of the source. Blank lines part the entries; values can stand above or below the molecule they belong to. No end group written: not given here.

Columns and labels:
[1] = molecular target: T1, alpha-amidating enzyme (Rattus norvegicus, UniProt P14925); experiment: comparison of assay systems / kinetic analysis of amidation of dansyl-Tyr-Val-Gly, D-Tyr-Val-Gly and 125I-D-Tyr-Val-Gly; type: biochemical
T1 sequence (P14925 36-976): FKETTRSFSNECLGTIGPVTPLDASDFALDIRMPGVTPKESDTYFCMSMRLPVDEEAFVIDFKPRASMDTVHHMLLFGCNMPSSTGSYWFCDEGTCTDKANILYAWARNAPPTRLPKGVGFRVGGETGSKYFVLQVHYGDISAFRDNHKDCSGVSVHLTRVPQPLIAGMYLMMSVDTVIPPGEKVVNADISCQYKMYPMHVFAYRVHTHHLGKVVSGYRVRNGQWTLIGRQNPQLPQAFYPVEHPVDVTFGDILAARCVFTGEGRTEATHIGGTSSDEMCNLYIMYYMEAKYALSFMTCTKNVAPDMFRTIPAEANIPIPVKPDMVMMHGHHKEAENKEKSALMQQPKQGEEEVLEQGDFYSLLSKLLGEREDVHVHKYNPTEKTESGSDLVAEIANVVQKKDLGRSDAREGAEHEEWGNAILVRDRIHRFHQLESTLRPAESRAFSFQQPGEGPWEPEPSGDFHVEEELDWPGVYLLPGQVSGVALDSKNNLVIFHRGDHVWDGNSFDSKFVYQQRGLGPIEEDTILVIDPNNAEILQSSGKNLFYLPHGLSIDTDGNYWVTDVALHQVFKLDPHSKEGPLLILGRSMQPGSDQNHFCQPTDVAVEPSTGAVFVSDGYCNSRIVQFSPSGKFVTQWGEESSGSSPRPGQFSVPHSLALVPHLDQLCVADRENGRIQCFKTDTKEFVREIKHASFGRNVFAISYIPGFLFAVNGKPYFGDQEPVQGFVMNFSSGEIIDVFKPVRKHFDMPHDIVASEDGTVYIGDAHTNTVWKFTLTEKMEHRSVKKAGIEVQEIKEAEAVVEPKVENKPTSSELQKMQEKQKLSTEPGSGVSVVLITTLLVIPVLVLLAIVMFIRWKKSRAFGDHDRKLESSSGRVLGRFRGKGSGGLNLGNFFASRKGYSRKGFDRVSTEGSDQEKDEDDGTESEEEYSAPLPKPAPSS
Protocol: I. Monodansyl L-Tyr-Val-Gly
The concentration of enzyme used in all experiments was left constant except where noted.
(§1) The reaction mixture for the conversion of the monodansyl substrate contained:
5 μl of 100 ug/mL bovine pancreatic catalase
5 μl containing 2 nmoles of substrate
The samples were prepared in duplicate and incubated at 37° C. for 10, 20 and 30 minutes time periods. The enzymatic reaction was halted by the addition of 10 ul 500 mM EDTA. Substrate and product were separated by RP HPLC using an Hewlett Packard-1090 liquid chromatography system, and quantitation was achieved using a HP-3392 integrator.
D-Tyr-Val-Gly and D-Tyr-Val-NH2 were iodinated using iodobeads from Pierce Chemical Company. The radiolabeied substrate and product were used to calibrate a sulfyl-propyl cation-exchange column. ^125 I D-Tyr-Val-Gly was added to 650 uM D-Tyr-Val-Gly and used as the substrate. The reaction mixture for the conversion of monodansyl substrate contained:
Samples were incubated for 10, 20, 30 minutes at 37° C. The reaction was stopped by addition of 500 mM EDTA. […] The conversion of radiolabeled substrate to product was linear with respect to time.
The reaction conditions used for the amidation of D-Tyr-Val-Gly are identical to those described for the dansyl and iodinated substrates. Substrate concentration in the reaction mixture was 650 uM. Separation of substrate and product is achieved by gradient elution on RP-HPLC using a HP-1090 liquid chromatography system. The column effluents were monitored at 280 nm. The level of sensitivity for this assay is much lower than that for either dansyl or iodinated substrates.
Furthermore, a somewhat more rigorous kinetic analysis has also been employed to compare the dansyl-Tyr-Val-Gly (Applicants') assay to the D-Tyr-Val-Gly (prior art) assay.

[2] = molecular target: T1, alpha-amidating enzyme; experiment: kinetic studies of alpha-amidating enzyme with monodansyl L-Tyr-Val-Gly; type: biochemical; conditions: pH 7.0, 37° C.
Text: These assays incorporate the use of synthetic tripeptide substrates. Amidation of these substrates is conveniently monitored by separation and quantification of the product ([…] and substrate tripeptide) using HPLC. The most sensitive of the assays developed utilizes monodansyl L-Tyr-Val-Gly as substrate. This compound can be detected at extremely low levels because the dansyl group is fluorescent.
In particular, the kinetic parameters Km and Vmax have been determined by examination of the effect of variation of substrate concentration upon enzymatic activity. […] The smaller the Km the greater the affinity. Vmax is the maximum velocity at which the enzyme will convert the substrate to product and is observed at saturating concentrations of substrate (i.e., the substrate is present in large excess over the enzyme).
In a typical amidation enzyme assay, the reation system (50 ul) would comprise enzyme (approximately 7 μg), dansyl L-Tyr-Val-Gly (up to 40 μM), L-ascorbic acid (3 mM), catalase (0 to 100 μg ml^-1), and copper sulfate (0 to 2 uM) in 60 mM TES buffer at pH 7.0. The reaction is initiated at 37° C. by the addition of enzyme and terminated after a defined period of time by the addition of 0.1 M EDTA (final concentration), which binds up copper making it unavailable for the enzyme.

[3] = biological activity of amidated recombinant hormones versus synthetic hormone
[4] = specific alpha-amidating activity, conversion of Dansyl-D-Tyr-Val-Gly to Dansyl-D-Tyr-Val-CONH2; type: biochemical; conditions: homogeneous peak III enzyme, rat MTC tumor
Protocol: These and other objects will become apparent from a thorough reading of the present disclosure. […] All specific activity units set forth herein are based upon the conversion of Dansyl-D-Try-Val-Gly-COOH to Dansyl-D-Tyr-Val-CONH2. One mU is defined as the amount of activity needed to convert one nanomole (nmole) of Dansyl-D-Tyr-Val-Gly-COOH to one nmole of Dansyl-D-Tyr-Val-CONH2 per minute at 37° C. and pH 7.0 in the presence of ascorbate ions at a concentration of 3 mM (based on total reaction mixture including enzyme, substrate, co-factors, etc.), molecular oxygen in a molar excess over substrate and a concentration of cupric ions effective to maximize activity (usually about 2 μM depending on the state of purity of the enzyme).
Each purification step can be monitored for both protein content and the level of alpha-amidation activity. This information is used to calculate the specific activity of the enzyme which serves as an indicator of the relative purity of the enzyme.
Sephacryl S-300 (Pharmacia) was equilibrated in 50 mM Tris HCl pH 7.0 and poured into a K 50/100 column (Pharmacia) according to the manufacturer's instructions. The bed volume of the column was approximately 1.3 liters. The Sample was loaded onto the column in a volume representing approximately 3 percent of the bed volume of the column. Proteins were eluted from the column in 50 mM Tris HCl pH 7.0 at a flow rate of approximately 2 ml per minute.
as §1
The samples were prepared in duplicate and incubated at 37° C. for 10, 20 and 30 minutes time periods. The enzymatic reaction was halted by the addition of 10 ul 500 mM EDTA.

[5] = pH optimum of alpha-amidating enzyme; type: biochemical; conditions: rat MTC tumor enzyme, N dansyl Tyr-Val-Gly substrate
Protocol: 2. The optimum pH for the activity of the enzyme was determined to be pH 5.0-5.5 using N dansyl Tyr-Val-Gly as the substrate (FIG. XVI). However, due to the enhanced stability of the enzyme at neutral pH, it may be beneficial to carry out the amidation reaction at such pH.

[6] = iso-electric point of alpha-amidating enzyme; type: physicochemical
[7] = molecular target: T1, alpha-amidating enzyme; experiment: co-factor requirement of alpha-amidating enzyme for maximal activity; type: biochemical
[8] = cited from earlier work

Km [1]: 1.7 µM | Vmax [1]: 21 pmol product/min/μl | Km ([2]; regardless of the state of purification of the enzyme): 1 to 2 µM
Molecule: monodansyl L-Tyr-Val-Gly [Dansyl-Tyr-Val-Gly]

Molecule: recombinant hGHRF: recombinant, alpha-amidated human growth hormone releasing factor (YADAIFTNSYRKVLGQLSARKLLQDIMSRQQGESNQERGARARL-NH2; UniProt P01286 32-75, looked up)
biological activity (and characterization) compared with synthetic hormone [3]: indistinguishable from synthetic hGHRF

Molecule: recombinant human calcitonin: purified alpha-amidated recombinant human calcitonin (CGNLSTCMLGTYTQDFNKFHTFPQTAIGVGAP-NH2; ends and bridges not checked; UniProt P01258 85-116, looked up)
biological activity (and characterization) compared with synthetic hormone [3]: indistinguishable from synthetic human calcitonin

pH optimum [5]: 5.0-5.5 | Cu++ required for maximal activity [7]: ≤ 0.1 µM
B1: peak III enzyme (MTC tumor): MTC tumor alpha-amidating enzyme peak eluting at 220 mM NaCl from Mono Q pH 6.0, purified to homogeneity (protein, UniProt P14925 36-976, looked up)
Peptidylglycine …: T1 sequence (P14925 36-976)
modifications: Mono Q peak III form
specific activity [4]: 2,100 mU/mg protein | iso-electric point (pI) [6]: 4.8

B2: alpha-amidating enzyme from rat pituitaries: alpha-amidating enzyme partially purified from rat pituitaries (protein, UniProt P14925 36-976, looked up)
Peptidylglycine …: T1 sequence (P14925 36-976)
modifications: partially purified
enzyme activity outside pH 6.5-7.5 ([8]; pH levels below 6.5 or above 7.5): declined rapidly | pH optimum ([8]; pituitary, partially purified): 7

pH optimum [5]: 5.0-5.5
B3: peak II enzyme (MTC tumor): MTC tumor alpha-amidating enzyme peak eluting at 200 mM NaCl from Mono Q pH 6.0 (protein, UniProt P14925 36-976, looked up)
Peptidylglycine …: T1 sequence (P14925 36-976)
modifications: Mono Q peak II form
iso-electric point (pI) [6]: approximately 5.8

B4: pure tumor enzyme: pure alpha-amidating enzyme from tumor (protein, UniProt P14925 36-976, looked up)
Peptidylglycine …: T1 sequence (P14925 36-976)
Vmax ([2]; dansyl L-Tyr-Val-Gly, pure tumor enzyme): about 5000 nmol product formed per mg protein
